Results on one molecule are retold here after patent US20030069395A1 (DYAX, published 2003).

Test [1] concerns the target T1, chicken ovalbumin (Chicken, UniProt P01012 2-386).
T1 construct: Negative control; also called Chicken (egg)
T1 sequence (looked up): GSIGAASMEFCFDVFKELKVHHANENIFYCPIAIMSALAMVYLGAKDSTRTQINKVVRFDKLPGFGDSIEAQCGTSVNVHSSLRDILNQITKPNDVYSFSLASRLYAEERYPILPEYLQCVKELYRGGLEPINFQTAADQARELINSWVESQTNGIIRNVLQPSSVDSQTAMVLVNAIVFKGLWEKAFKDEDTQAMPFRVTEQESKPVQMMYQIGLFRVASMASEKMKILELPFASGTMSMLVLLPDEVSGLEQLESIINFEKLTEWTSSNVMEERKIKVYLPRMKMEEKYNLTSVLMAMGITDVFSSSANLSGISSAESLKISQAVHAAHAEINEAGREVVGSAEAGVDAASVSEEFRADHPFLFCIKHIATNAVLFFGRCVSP
The test can be described thus: fluorescence anisotropy; PBS, pH 7.4, 0.14 M NaCl; negative control.

Test [2] addresses T2, murine serum albumin (MSA) (Mouse, UniProt P07724 25-608).
T2 construct: also called mouse serum albumin; Mouse
Kind of test: fluorescence anisotropy; 3 mM phosphate, pH 6.2, 0 M NaCl. Background: Polarisation of emitted light reports the rotation of a fluorescent probe.

The target of test [3] is T3, rhesus serum albumin (Rhesus, UniProt Q28522 17-600). The description is as above.
Test [4] deals with T4, goat serum albumin (GSA) (Goat).
T4 sequence (P85295 whole entry, looked up): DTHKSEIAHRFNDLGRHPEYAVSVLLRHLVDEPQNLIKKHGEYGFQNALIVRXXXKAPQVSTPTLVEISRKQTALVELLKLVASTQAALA
The description is as above.

For test [5], the target named is T5, pig serum albumin (Pig, UniProt P08835 25-607). The test is described as above.
For test [6], the target named is T6, bovine serum albumin (BSA) (Bovine, UniProt P02769 25-607). The test is described as above.
In test [7] the target is T7, human serum albumin (HSA) (human, UniProt P02768 25-609).
T7 construct: also called caprylate-biotinylated-HSA
Described as above.

In test [8] the target is T7, human serum albumin (HSA). The test can be described thus: fluorescence anisotropy; pH 6.2, 10 mM NaCl. As for the experimental part: (§1) Affinity determinations were made by first labeling polypeptides on the C-terminal end with NHS-fluorescein. Fluorescence anisotropy measurements were performed in 384-well microplates in a volume of 10 μl in binding buffer using a Tecan Polarion fluorescence polarization plate reader. The concentration of fluorescein labeled peptide was held constant (20 nM), and the concentration of HSA was varied. For pH 6.2, 7.1, and 7.4 binding conditions, a 3 mM phosphate, 0.01% Tween-20 buffer was used. For pH 9.1 binding conditions, a 3 mM sodium bicarbonate buffer, 0.01% Tween-20 nonionic detergent buffer was used. Once NaCl was added to any of these buffers, their pH was adjusted again to achieve the original pH. The binding mixtures were equilibrated for 10 minutes in the microplate at 30° C. prior to performing the measurement. The observed change in anisotropy was fit to the equation below via nonlinear regression to obtain the apparent KD. This equation assumes that the peptide and HSA form a reversible complex with 1:1 stoichiometry.

Test [9] deals with T7, human serum albumin (HSA). Kind of test: fluorescence anisotropy; pH 6.2, 0.14 M NaCl, no caprylate. On the procedure: as §1
The target in test [10] is T7, human serum albumin (HSA). The test can be described thus: fluorescence anisotropy; pH 7.4, 0.14 M NaCl, no caprylate. As for the experimental part:
as §1

The target of test [11] is T7, human serum albumin (HSA). The test can be described thus: fluorescence anisotropy; pH 7.4, 0.14 M NaCl, 0.1% caprylate. As for the experimental part: as §1
Once all the positive phage isolates were sequenced, peptides corresponding to the display peptide were synthesized. A small amount of constant phage sequence surrounding each varied amino acid sequence region was retained and either a -GGGK-NH₂ (SEQ ID NO: 24) amino acid sequence or -X-K-NH₂ C-terminal tail was added to each peptide, where X is 6-aminohexanoic acid and K-NH₂ is an amidated terminal lysine residue. The constant phage sequence was retained because these residues can often play a role in target binding. To determine its affinity for HSA , each peptide was labeled with fluorescein on the C-terminal lysine side chain.

The target of test [12] is T7, human serum albumin (HSA). Kind of test: fluorescence anisotropy; pH 6.2, no NaCl, no caprylate. As for the experimental part: as §1
The target of test [13] is T2, murine serum albumin (MSA). The test can be described thus: fluorescence anisotropy; PBS, pH 7.4, 0.14 M NaCl.
Test [14] deals with T3, rhesus serum albumin. Kind of test: fluorescence anisotropy; PBS, pH 7.4, 0.14 M NaCl.
Test [15] has as its target T4, goat serum albumin (GSA). The test can be described thus: fluorescence anisotropy; PBS, pH 7.4, 0.14 M NaCl.
Test [16] has as its target T5, pig serum albumin. The test can be described thus: fluorescence anisotropy; PBS, pH 7.4, 0.14 M NaCl.
In test [17] the target is T6, bovine serum albumin (BSA). Kind of test: fluorescence anisotropy; PBS, pH 7.4, 0.14 M NaCl.
For test [18], the target named is rat serum albumin (Rat, UniProt P02770 25-608). The test can be described thus: fluorescence anisotropy; PBS, pH 7.4, 0.14 M NaCl.
Test [19] addresses T7, human serum albumin (HSA). Kind of test: fluorescence anisotropy; PBS, pH 7.4, 0.14 M NaCl.
The target of test [20] is T1, chicken ovalbumin. Kind of test: fluorescence anisotropy; 3 mM phosphate, pH 6.2, 0 M NaCl; negative control.

Where only a bound is given, the exact number is not on record here.

T5 sequence (P08835 25-607 limits assumed): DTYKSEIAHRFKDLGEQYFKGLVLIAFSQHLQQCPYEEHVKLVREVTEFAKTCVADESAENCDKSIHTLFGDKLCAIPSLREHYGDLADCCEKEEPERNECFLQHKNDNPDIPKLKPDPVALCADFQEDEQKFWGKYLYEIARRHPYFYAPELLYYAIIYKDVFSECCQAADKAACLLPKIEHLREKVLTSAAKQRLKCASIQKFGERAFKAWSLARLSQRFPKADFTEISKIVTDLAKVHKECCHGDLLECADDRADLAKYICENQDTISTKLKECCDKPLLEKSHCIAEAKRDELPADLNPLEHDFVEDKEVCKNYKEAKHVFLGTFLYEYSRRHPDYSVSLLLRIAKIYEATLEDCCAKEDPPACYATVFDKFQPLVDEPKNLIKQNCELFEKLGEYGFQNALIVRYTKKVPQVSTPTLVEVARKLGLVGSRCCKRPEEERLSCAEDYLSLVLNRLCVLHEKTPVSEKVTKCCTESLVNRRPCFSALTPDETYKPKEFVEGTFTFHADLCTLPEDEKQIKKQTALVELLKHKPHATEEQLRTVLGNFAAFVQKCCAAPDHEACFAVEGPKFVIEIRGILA
T2 sequence (P07724 25-608 limits assumed): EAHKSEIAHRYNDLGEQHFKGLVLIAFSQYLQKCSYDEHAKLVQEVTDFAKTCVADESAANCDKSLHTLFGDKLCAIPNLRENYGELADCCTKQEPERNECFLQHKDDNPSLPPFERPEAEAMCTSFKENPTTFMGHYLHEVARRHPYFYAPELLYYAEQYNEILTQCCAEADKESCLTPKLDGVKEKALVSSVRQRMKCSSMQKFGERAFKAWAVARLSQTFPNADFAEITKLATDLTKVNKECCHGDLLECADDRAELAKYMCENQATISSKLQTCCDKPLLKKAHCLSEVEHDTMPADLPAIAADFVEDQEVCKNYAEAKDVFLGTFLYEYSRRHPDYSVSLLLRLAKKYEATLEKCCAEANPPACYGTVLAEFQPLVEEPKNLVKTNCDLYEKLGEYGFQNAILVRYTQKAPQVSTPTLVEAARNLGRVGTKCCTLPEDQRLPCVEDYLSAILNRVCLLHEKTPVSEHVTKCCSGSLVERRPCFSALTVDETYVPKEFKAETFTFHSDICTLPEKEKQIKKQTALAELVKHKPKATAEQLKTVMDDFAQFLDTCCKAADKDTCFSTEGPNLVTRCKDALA
T6 sequence (P02769 25-607 limits assumed): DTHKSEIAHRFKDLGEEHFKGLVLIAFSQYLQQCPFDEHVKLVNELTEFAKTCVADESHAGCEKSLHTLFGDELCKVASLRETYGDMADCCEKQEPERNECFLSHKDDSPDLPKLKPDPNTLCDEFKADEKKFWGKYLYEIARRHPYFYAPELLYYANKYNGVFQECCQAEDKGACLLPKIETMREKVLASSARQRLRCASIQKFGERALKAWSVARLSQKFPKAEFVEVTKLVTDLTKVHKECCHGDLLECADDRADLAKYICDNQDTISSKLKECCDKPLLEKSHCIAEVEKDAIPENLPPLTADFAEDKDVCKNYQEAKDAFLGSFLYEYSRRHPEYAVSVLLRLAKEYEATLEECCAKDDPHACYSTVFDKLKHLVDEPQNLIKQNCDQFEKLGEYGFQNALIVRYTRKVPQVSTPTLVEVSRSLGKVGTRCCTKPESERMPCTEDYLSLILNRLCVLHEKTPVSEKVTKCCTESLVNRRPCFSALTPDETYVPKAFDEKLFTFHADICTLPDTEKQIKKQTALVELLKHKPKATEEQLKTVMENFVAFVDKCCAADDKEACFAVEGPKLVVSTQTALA
T3 sequence (Q28522 17-600 limits assumed): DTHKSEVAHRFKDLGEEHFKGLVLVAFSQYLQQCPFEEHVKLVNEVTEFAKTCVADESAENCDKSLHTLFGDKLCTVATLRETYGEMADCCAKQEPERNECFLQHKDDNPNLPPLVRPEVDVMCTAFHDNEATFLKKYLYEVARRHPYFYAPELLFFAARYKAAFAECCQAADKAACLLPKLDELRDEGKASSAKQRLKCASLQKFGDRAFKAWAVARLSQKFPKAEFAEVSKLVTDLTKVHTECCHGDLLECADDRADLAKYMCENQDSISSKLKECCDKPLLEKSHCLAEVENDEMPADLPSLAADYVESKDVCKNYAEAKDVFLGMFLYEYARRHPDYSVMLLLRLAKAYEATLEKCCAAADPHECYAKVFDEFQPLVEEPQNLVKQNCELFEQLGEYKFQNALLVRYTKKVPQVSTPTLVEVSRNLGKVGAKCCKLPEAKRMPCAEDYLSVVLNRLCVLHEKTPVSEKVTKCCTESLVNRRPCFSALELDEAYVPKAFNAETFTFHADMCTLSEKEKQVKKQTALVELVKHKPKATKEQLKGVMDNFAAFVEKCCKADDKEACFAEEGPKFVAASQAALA
Chain of rat serum albumin (P02770 25-608 limits assumed): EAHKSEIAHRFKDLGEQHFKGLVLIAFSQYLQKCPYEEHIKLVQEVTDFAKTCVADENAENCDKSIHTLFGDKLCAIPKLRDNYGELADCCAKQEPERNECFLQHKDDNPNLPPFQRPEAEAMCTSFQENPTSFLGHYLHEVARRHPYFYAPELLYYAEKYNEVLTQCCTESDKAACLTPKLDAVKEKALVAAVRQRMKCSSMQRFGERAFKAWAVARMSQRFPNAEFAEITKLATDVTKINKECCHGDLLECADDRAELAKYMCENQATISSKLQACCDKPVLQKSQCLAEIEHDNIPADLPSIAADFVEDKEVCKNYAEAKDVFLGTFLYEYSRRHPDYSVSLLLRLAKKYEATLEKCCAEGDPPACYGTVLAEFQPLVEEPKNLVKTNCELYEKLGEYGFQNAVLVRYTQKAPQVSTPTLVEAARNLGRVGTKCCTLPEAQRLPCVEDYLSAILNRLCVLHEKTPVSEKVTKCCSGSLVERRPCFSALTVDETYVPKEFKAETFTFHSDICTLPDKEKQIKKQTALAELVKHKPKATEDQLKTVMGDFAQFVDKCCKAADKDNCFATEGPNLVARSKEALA

B1: DX-321, Ac-AEGTGDRNMCKFSWIRSPAFCARADPE-X-K-NH2 (peptide)
peptide: AEGTGDRNMCKFSWIRSPAFCARADPEXK
modifications: N-terminal acetyl; X = 6-aminohexanoic acid before the C-terminal Lys; C-terminal amide; C-terminal Lys side chain carries fluorescein (anisotropy) or is coupled to NHS-Sepharose
Consider B1, for which the Kd (in general, the constant that tells how readily two partners part at equilibrium) is above 200 µM in test [1]; above 200 µM in test [2]; 38 µM in [3]; 95 µM in test [4]; 21 µM in [5]; 21 µM in test [6]. Also, the Kd in test [7] was 0.9 µM; in test [8], around 9 µM; in [9], 9 µM; in test [10] it was 84 µM; in [11] it was 75 µM; in test [12], 0.9 µM. Further, the Kd in test [13] was above 200 µM; in test [14], 82 µM; in test [15] it was 83 µM; in test [16], above 200 µM; in test [17], above 200 µM; in test [18], 117 µM. The values for the Kd in test [19] and in test [20] were 84 µM and above 200 µM, respectively.
